In US20190360025A1:
One block for each substance: values may come before it.

Experiments:
[1] = target: tumor necrosis factor alpha (TNF-α), R&D Systems 210-TA-005 (UniProt P01375); assay: t-PLA 1X probes, human plasma; TNF-α 1.00E-10 M
[2] = target: tumor necrosis factor alpha (TNF-α), R&D Systems 210-TA-005 (UniProt P01375); assay: t-PLA, buffer; TNF-α 1.00E-08 M
[3] = target: tumor necrosis factor alpha (TNF-α), R&D Systems 210-TA-005 (UniProt P01375); assay: c-PLA 10X probes, human plasma; TNF-α 1.00E-13 M
[4] = target: tumor necrosis factor alpha (TNF-α), R&D Systems 210-TA-005 (UniProt P01375); assay: c-PLA 10X probes, buffer; TNF-α 1.00E-09 M
[5] = target: tumor necrosis factor alpha (TNF-α), R&D Systems 210-TA-005 (UniProt P01375); assay: c-PLA, buffer; TNF-α 1.00E-12 M
[6] = target: tumor necrosis factor alpha (TNF-α), R&D Systems 210-TA-005 (UniProt P01375); assay: t-PLA 10X probes, buffer; TNF-α 1.00E-08 M
[7] = target: tumor necrosis factor alpha (TNF-α), R&D Systems 210-TA-005 (UniProt P01375); assay: c-PLA 1X probes, buffer; TNF-α 1.00E-11 M
[8] = target: tumor necrosis factor alpha (TNF-α), R&D Systems 210-TA-005 (UniProt P01375); assay: c-PLA 10X probes, buffer; TNF-α 5.00E-07 M
[9] = target: tumor necrosis factor alpha (TNF-α), R&D Systems 210-TA-005 (UniProt P01375); assay: t-PLA 1X probes, buffer; TNF-α 1.00E-11 M
[10] = target: tumor necrosis factor alpha (TNF-α), R&D Systems 210-TA-005 (UniProt P01375); assay: t-PLA 10X probes, human plasma; TNF-α 5.00E-07 M
[11] = target: tumor necrosis factor alpha (TNF-α), R&D Systems 210-TA-005 (UniProt P01375); assay: c-PLA 1X probes, buffer; TNF-α 1.00E-09 M
[12] = target: tumor necrosis factor alpha (TNF-α), R&D Systems 210-TA-005 (UniProt P01375); assay: c-PLA 10X probes, human plasma; TNF-α 1.00E-08 M
[13] = target: tumor necrosis factor alpha (TNF-α), R&D Systems 210-TA-005 (UniProt P01375); assay: c-PLA 10X probes, buffer; TNF-α 1.00E-10 M
[14] = target: vascular endothelial growth factor (VEGF), R&D Systems 293-VE-010 (human) (UniProt P15692); assay: c-PLA, human plasma; VEGF 1.00E-14 M
UniProt P15692, sequence (P15692 other isoform, or with tags, fused parts or gaps limits assumed): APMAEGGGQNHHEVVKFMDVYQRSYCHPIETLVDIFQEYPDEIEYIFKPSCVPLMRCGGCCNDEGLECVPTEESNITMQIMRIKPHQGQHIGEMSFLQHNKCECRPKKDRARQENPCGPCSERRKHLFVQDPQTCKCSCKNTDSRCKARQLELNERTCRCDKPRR

[15] = target: vascular endothelial growth factor (VEGF), R&D Systems 293-VE-010 (human) (UniProt P15692); assay: c-PLA, human plasma; VEGF 1.00E-11 M
[16] = target: vascular endothelial growth factor (VEGF), R&D Systems 293-VE-010 (human) (UniProt P15692); assay: t-PLA, buffer; VEGF 1.00E-11 M
[17] = target: vascular endothelial growth factor (VEGF), R&D Systems 293-VE-010 (human) (UniProt P15692); assay: t-PLA with preamplification; VEGF 1.00E-12 M
[18] = target: vascular endothelial growth factor (VEGF), R&D Systems 293-VE-010 (human) (UniProt P15692); assay: c-PLA, human plasma; VEGF 1.00E-12 M
[19] = target: vascular endothelial growth factor (VEGF), R&D Systems 293-VE-010 (human) (UniProt P15692); assay: t-PLA with preamplification; VEGF 1.00E-11 M
[20] = target: vascular endothelial growth factor (VEGF), R&D Systems 293-VE-010 (human) (UniProt P15692); assay: t-PLA, buffer; VEGF 1.00E-09 M
[21] = target: vascular endothelial growth factor (VEGF), R&D Systems 293-VE-010 (human) (UniProt P15692); assay: c-PLA, buffer; VEGF 1.00E-12 M
[22] = target: vascular endothelial growth factor (VEGF), R&D Systems 293-VE-010 (human) (UniProt P15692); assay: SPR, isoaffinity graph
[23] = target: vascular endothelial growth factor (VEGF), R&D Systems 293-VE-010 (human) (UniProt P15692); assay: c-PLA, human plasma; VEGF 1.00E-13 M
[24] = target: vascular endothelial growth factor (VEGF), R&D Systems 293-VE-010 (human) (UniProt P15692); assay: t-PLA, buffer; VEGF 1.00E-13 M
[25] = target: vascular endothelial growth factor (VEGF), R&D Systems 293-VE-010 (human) (UniProt P15692); assay: t-PLA with preamplification; VEGF 1.00E-13 M
[26] = target: vascular endothelial growth factor (VEGF), R&D Systems 293-VE-010 (human) (UniProt P15692); assay: c-PLA, chicken plasma; VEGF 1.00E-14 M
[27] = target: vascular endothelial growth factor (VEGF), R&D Systems 293-VE-010 (human) (UniProt P15692); assay: t-PLA with preamplification; VEGF 1.00E-10 M
[28] = target: vascular endothelial growth factor (VEGF), R&D Systems 293-VE-010 (human) (UniProt P15692); assay: c-PLA, chicken plasma; VEGF 1.00E-12 M

UniProt P01375, sequence (P01375 77-233 limits assumed): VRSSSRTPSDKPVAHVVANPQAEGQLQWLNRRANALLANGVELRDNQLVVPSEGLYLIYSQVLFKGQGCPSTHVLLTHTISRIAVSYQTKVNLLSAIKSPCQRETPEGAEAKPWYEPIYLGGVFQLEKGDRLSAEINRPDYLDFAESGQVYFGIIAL

Substance: affinity-purified polyclonal anti-TNF-α antibody (R&D Systems AF-210-NA)
Counts [1]: 1.56e+06
SBR [1]: 6.6
Counts [2]: 5.4e+07
SBR [2]: 317
Counts [3]: 2030
Counts [4]: 80000
SBR [4]: 437
Counts [5]: 4.62
Counts [6]: 1.33e+09
SBR [6]: 233
Counts [7]: 22.1
SBR [7]: 1.4
Counts [8]: 650000
SBR [8]: 3550
Counts [9]: 443000
Counts [10]: 2.25e+09
SBR [10]: 198
Counts [11]: 3700
SBR [11]: 232
Counts [12]: 158000
SBR [12]: 73
Counts [13]: 4620

Counts [14]: 292
SBR [14]: 1.1
Counts [15]: 1770
SBR [15]: 6.8
Counts [16]: 4.21e+07
SBR [16]: 122
Counts [17]: 1.26e+06
SBR [17]: 7.1
Counts [18]: 408
SBR [18]: 1.6
Counts [19]: 1.26e+07
SBR [19]: 71
Counts [20]: 3.98e+09
SBR [20]: 11500
Counts [21]: 619
SBR [21]: 21
Kd [22]: < 5 pM
Counts [23]: 310
SBR [23]: 1.2
Counts [24]: 1.61e+06
Counts [25]: 577000
SBR [25]: 3.3
Counts [26]: 10.7
SBR [26]: 1.2
Counts [27]: 1.78e+08
SBR [27]: 1010
Counts [28]: 198
SBR [28]: 22
Substance: affinity-purified polyclonal anti-VEGF antibody (R&D Systems AF-293-NA)
